From paper PMC12434308 (Nature chemical biology, 2021) come the findings set out here.

The target in this assay is SARS-CoV-2 S protein (SARS-CoV-2) (UniProt P0DTC2). Put plainly: native MS.

“And” between values parts separate entries of the source, which are not always exact repeats. Identical values can stand only once.

What is called stoichiometry N is the number of molecules, sites or subunits per partner or assembly. Turning to “SARS-CoV-2 S protein (from UniProt P0DTC2) (natural protein)”, the stoichiometry N is 2 and 6.
